Assay [1] addresses T1, human CEACAM6, extracellular (mature form), R&D Systems 3934-CM (human, UniProt P40199 35-320).
T1 construct: used biotinylated in some assays; also called TPP-1436; Recombinant human CEACAM6
T1 sequence: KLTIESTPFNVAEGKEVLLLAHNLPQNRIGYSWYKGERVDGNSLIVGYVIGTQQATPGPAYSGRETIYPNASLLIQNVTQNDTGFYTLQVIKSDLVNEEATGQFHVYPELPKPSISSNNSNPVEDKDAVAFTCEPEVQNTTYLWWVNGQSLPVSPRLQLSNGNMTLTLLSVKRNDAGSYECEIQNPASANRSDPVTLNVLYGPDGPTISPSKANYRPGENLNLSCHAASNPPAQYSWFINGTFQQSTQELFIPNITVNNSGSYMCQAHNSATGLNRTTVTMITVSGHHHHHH
The assay is described as follows: SPR, antibody captured, antigen as analyte.

Assay [2] deals with T1, human CEACAM6, extracellular (mature …). The assay is described as follows: ELISA, antibody captured, biotinylated antigen titrated. On the procedure:
The binding characteristics of these antibodies were also determined by a binding ELISA (monovalent binding, biotinylated CEACAM proteins): A 1:440 dilution of an anti-human IgG (Sigma, 12136) in Coating buffer (Candor) was used to coat black 384-well Maxisorp plates (Nunc) for 1 hour at 37° C. After one wash with PBS/0.05% Tween-20 the plates were blocked with 100% SmartBlock (Candor) for 1 hour at 37° C. After three washes, 2 μg/ml of the relevant antibodies were added to the plate in PBS/0.05% Tween-20/10% SmartBlock. The plates were incubated for 1 hour at room temperature. After three washes dilution series of the relevant biotinylated CEACAM proteins in PBS/0.05% Tween-20/10% SmartBlock were added and the plates were incubated for one hour at room temperature. After three washes 1 μg/ml of Streptavidin-Peroxidase (Sigma, S5512) in PBS/0.05% Tween-20/10% SmartBlock was added and the plates were incubated for 30 minutes at room temperature. After three washes, the plates were developed with Amplex Red (Life Technologies) and fluorescence was read at an emission wavelength of 590 nm. GraphPad Prism 6.0 software was used to calculate EC₅₀ values using four-parameter non-linear curve fit.

In assay [3] the target is T2, human CEACAM19, full-length, on transfected HeLa cells (human, UniProt Q7Z692 33-300).
T2 construct: also called TPP-4186; HeLa human CEACAM19
T2 sequence: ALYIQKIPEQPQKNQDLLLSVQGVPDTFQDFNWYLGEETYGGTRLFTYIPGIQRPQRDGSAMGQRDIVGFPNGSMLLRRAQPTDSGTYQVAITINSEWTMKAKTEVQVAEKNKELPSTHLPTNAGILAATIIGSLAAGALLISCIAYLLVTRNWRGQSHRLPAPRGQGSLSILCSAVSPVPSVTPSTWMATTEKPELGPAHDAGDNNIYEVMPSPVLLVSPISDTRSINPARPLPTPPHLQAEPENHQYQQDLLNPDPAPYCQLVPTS
The assay is described as follows: FACS, transfected HeLa cells. In a few lines: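 Antibody binding to transfected HeLa cells was measured by FACS on a Canto II or FACS Array instrument. For half maximal binding (EC₅₀), primary antibodies were titrated from 0.1 nM to 100 nM. Median fluorescence intensity was plotted against log concentration, and curves were fitted in Graph Pad prism. Cells had been released with EDTA dissociation buffer and stained at 4° C.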
(In general: Flow cytometry measures light scatter and fluorescence of single cells or particles in a stream.)

Assay [4] has as its target T3, Macaca fascicularis CEACAM6-Domain 1-His (expressed in E. coli) (Macaca fascicularis).
T3 construct: entry includes the His tag; also called TPP-2453; Recombinant single domain 1 of Macaca fascicularis CEACAM6
T3 chain: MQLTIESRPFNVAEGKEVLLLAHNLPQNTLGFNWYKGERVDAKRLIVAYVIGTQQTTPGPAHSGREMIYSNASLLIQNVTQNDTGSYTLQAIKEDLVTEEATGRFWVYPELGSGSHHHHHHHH
As to the kind of experiment: SPR, antibody captured, antigen as analyte. On the procedure: (§1) Surface plasmon resonance (SPR) experiments for quantitative binding analyses were performed either using a Biacore T100, Biacore T200 or a Biacore 4000 instrument (GE Healthcare Biacore, Inc.) equipped with Series S Sensor Chips CM5 (GE Healthcare Biacore, Inc.). Binding assays were carried out at 25° C. with assay buffer HBS-EP+(10 mM HEPES pH 7.4, 150 mM NaCl, 3 mM EDTA, 0.05% Surfactant P20). Antibodies were captured with an anti-hIgG capture antibody covalently immobilized to the chip surface via amine coupling chemistry. Reagents for amine coupling (1-ethyl-3-(3-dimethylaminopropyl) carbodiimide hydrochloride (EDC), N-hydroxysuccinimide (NHS), ethanolamine-HCl pH 8.5) were used from the Amine Coupling Kit (GE Healthcare, product code BR-1000-50). Anti-hIgG, anti-mIgG capture antibodies and immobilization buffer (10 mM sodium acetate pH 5.0) were used from the Human Antibody Capture Kit (GE Healthcare, BR-1008-39) and the Mouse Antibody Capture Kit (GE Healthcare, BR-1008-38), respectively. The sensor chip surface was activated with a freshly prepared solution of 0.2 M EDC and 0.05 M NHS passed over the chip surface for 420 s at a flow rate of 10 μl/min, followed by an injection of anti-hIgG or anti-mIgG capture antibody (dissolved to 25 μg/ml in immobilization buffer) for 180 s at a flow rate of […]. Excess of activated groups were blocked with a 1 molar solution of ethanolamine injected at a flow rate of 10 μl/min for 420 s.
(§2) CEACAM antigens were used as analyte to determine KD values. Antibodies were captured for 20 s at a flow rate of 10 μl/min prior to each analyte injection.
Background: Surface plasmon resonance follows binding to a sensor surface in real time, without labels.

Assay [5] concerns the target T4, Human CEACAM6-Domain 1-His (expressed in E. coli), wild-type (human).
T4 construct: entry includes the His tag; also called hDOM1
T4 chain: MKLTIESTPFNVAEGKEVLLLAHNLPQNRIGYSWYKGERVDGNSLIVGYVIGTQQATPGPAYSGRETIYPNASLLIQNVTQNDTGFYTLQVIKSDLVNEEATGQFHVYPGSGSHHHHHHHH
The assay is described as follows: SPR, antibody captured, antigen as analyte. How it is done:
as §1, §2

This is an account of results in patent publication US20200181261A1 (Bayer, published 2020).

One may read the Kd as the equilibrium constant for the complex coming apart. What is called EC50 is the concentration that produces a half-maximal response. Higher therefore signals lower potency in that assay.

B1: TPP-3714 (antibody, human IgG2, kappa)
heavy: QVTLRESGPALVKPTQTLTLTCTFSGFSLSTYGIGVGWIRQPPGKALEWLAHIWWNDNKYYSTSLKTRLTISKDTSKNQVVLTMTNMDPVDTATYYCARISLPYFDYWGQGTLVTVSSASTKGPSVFPLAPCSRSTSESTAALGCLVKDYFPEPVTVSWNSGALTSGVHTFPAVLQSSGLYSLSSVVTVPSSNFGTQTYTCNVDHKPSNTKVDKTVERKCCVECPPCPAPPVAGPSVFLFPPKPKDTLMISRTPEVTCVVVDVSHEDPEVQFNWYVDGVEVHNAKTKPREEQFNSTFRVVSVLTVVHQDWLNGKEYKCKVSNKGLPAPIEKTISKTKGQPREPQVYTLPPSREEMTKNQVSLTCLVKGFYPSDIAVEWESNGQPENNYKTTPPMLDSDGSFFLYSKLTVDKSRWQQGNVFSCSVMHEALHNHYTQKSLSLSPG
light: DIQLTQSPSFLSASVGDRVTITCKASQNVGTAVAWYQQKPGKAPKLLIYSASNRYTGVPSRFSGSGSGTEFTLTISSLQPEDFATYYCQQYSSYPLTFGGGTKVEIKRTVAAPSVFIFPPSDEQLKSGTASVVCLLNNFYPREAKVQWKVDNALQSGNSQESVTEQDSKDSTYSLSSTLTLSKADYEKHKVYACEVTHQGLSSPVTKSFNRGEC
notes: humanized from TPP-2971, human IgG2; also called TPP-2971HU2-hIgG2Kappa
For the molecule B1, the Kd was 13 nM in assay [1], 3.2 nM in assay [4] and 3.7 nM in assay [5]. In assay [2], this molecule yielded an EC50 of 0.09 nM. Also, the binding result in assay [3] is on record as “no binding (tested: 5 µg/ml)”.
